Consider 1 molecule from PMC3912051, “The B-Subdomain of the Xenopus laevis XFIN KRAB-AB Domain Is Responsible for Its Weaker Transcriptional Repressor Activity Compared to Human ZNF10/Kox1” (PLoS ONE, 2014).

This assay deals with TRIM28 (endogenous human TRIM28 protein) (human (endogenous in HeLa), UniProt Q13263 1-835). Briefly: cell-based or functional assay.
Chain of TRIM28 (endogenous human TRIM28 protein) (Q13263 whole entry): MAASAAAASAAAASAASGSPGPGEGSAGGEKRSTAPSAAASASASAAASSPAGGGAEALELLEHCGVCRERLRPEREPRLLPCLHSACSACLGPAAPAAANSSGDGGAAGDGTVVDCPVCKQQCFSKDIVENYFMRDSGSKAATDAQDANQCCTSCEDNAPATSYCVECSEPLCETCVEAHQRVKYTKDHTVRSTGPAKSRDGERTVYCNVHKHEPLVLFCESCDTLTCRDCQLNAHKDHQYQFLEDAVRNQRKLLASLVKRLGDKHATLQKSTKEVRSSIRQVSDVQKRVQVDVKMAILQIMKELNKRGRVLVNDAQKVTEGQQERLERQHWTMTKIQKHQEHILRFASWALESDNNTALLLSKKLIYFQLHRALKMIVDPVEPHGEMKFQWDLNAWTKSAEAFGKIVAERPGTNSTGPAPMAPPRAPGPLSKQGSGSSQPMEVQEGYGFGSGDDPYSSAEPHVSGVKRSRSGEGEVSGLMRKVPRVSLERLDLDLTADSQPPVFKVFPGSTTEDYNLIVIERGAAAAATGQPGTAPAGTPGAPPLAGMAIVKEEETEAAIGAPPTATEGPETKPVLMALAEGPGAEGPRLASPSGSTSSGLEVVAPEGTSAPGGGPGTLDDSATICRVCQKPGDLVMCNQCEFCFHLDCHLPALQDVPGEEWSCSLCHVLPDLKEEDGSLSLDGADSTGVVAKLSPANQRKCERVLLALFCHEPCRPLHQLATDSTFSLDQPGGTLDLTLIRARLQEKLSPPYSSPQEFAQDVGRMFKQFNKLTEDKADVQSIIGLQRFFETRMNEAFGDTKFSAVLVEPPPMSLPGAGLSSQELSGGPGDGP

B1: GST-ZNF10-KRAB-AB (KRAB-AB domain of human ZNF10/Kox1 fused to glutathione S-transferase) (domain or fragment)
chain: not shown
On to B1, for which the “fold repression of a Gal4-site luciferase reporter by Gal4-ZNF10-KRAB-AB in EPC fish cells with co-transfected human TRIM28 (negligible without it)” value was about 2 fold.
